Measurements taken from patent US6306622, “cDNA encoding a BMP type II receptor” (The Procter & Gamble Co., dated 2001).
Where “and” joins values, the source holds several entries; their conditions need not be identical. Equal entries are not always repeated. Blank lines part the entries; values can stand above or below the binder they belong to.

What was measured:
[1] = molecular target: T1, mouse BMP receptor kinase protein (m-BRK-3) (mouse); experiment: whole cell binding of [125I]-BMP-4 to COS-1 cells transfected with pJT6-mBRK-3S or pJT6-mBRK-3L; conditions: remark: other sources report otherwise; scale: times the level of mock transfected cells
T1 chain: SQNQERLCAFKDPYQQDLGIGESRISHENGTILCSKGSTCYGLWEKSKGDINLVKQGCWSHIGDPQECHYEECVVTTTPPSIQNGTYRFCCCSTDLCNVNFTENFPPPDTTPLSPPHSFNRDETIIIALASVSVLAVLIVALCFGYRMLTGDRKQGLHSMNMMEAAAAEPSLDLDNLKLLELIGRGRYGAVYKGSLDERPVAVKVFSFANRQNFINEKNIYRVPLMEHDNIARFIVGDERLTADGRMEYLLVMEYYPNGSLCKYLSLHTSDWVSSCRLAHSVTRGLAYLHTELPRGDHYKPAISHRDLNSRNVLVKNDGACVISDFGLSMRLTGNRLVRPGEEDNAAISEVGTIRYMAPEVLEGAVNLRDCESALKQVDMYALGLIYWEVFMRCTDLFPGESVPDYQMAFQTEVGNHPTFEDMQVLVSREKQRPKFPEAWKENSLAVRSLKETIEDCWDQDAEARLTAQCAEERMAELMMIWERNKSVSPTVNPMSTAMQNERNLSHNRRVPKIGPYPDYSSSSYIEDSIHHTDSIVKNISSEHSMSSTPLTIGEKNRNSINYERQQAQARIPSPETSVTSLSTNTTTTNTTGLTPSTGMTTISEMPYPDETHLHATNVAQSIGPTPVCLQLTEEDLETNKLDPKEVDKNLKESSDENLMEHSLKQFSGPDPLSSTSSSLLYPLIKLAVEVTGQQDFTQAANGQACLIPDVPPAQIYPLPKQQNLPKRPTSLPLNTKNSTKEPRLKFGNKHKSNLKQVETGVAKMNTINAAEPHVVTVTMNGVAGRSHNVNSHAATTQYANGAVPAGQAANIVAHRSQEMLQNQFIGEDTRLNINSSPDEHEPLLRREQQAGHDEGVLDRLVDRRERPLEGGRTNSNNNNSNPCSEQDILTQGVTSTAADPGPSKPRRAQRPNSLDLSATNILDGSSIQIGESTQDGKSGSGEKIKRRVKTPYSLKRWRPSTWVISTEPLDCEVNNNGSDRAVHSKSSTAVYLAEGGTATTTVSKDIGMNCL

[2] = molecular target: T2, [^125 I]-BMP-4 (Homo sapiens (Human), UniProt P12644, 125I label (iodinated with IODOBEADS or by the chloramine-T method)); experiment: covalent crosslinking (DSS) to co-transfected COS-1 cells, SDS gel
T2 sequence: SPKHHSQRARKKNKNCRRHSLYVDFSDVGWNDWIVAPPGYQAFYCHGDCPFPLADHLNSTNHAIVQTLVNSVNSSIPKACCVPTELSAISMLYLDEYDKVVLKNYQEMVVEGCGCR
Excerpt: COS-1 cells are transfected with the cDNA for m-BRK-3 using the construct pJT6-mBRK-3S, and/or with cDNAs for BRK-1 (using pJT4-J159F) or BRK-2 (using pJT3-BRK-2). The cells are then allowed to bind [^125I]-BMP-4, crosslinked with disuccinimidyl suberate, immunoprecipitated with antibodies to BRK-1 or BRK-2, and subjected to SDS gel electrophoresis. Antisera used are indicated below the lanes: PI, preimmune; 1379, for cells transfected with cDNA for BRK-1; 1380, for cells transfected with cDNA for BRK-2. Position of molecular weight standards is indicated on the left. Left to right, COS-1 cells transfected with BRK-1 plus m-BRK-3 (preimmune serum); BRK-1 alone; BRK-1 plus m-BRK-3; BRK-2 plus m-BRK-3; BRK-2 alone; and BRK-2 plus m-BRK-3 (preimmune serum).
COS-1 cells are transfected with the cDNA for m-BRK-3, using the construct pJT6-mBRK-3 S, and/or with cDNAs for BRK-1 (using pJT4-J159F) or BRK-2 (using pJT3-BRK-2) as described in Example 5. The transfected cells are incubated with [^125I]-BMP-4, crosslinked, and subjected to immunoprecipitation with antibodies to the appropriate type I receptor or preimmune serum as described in example 8, except that DSS is used as the crosslinking agent rather than disuccinimidyl glutarate. In cells transfected with cDNA for BRK-1 alone, a single band is precipitated by antibodies to BRK-1, migrating at an apparent molecular weight of 81 kD. […]

specific binding, times the level seen with mock transfected cells [1]: 4 and 4 to 7
B1: [^125 I]-BMP-4, P12644 (ligand)
chain: T2 sequence
modifications: here or on the partner: 125I label (iodinated with IODOBEADS or by the chloramine-T method)

binding result [2]: binds
B2: m-BRK-3/BRK-1 complex (receptor)
chain 1: T1 chain
chain 2: QNLDSMLHGTGMKSDLDQKKPENGVTLAPEDTLPFLKCYCSGHCPDDAINNTCITNGHCFAIIEEDDQGETTLTSGCMKYEGSDFQCKDSPKAQLRRTIECCRTNLCNQYLQPTLPPVVIGPFFDGSIRWLVVLISMAVCIVAMIIFSSCFCYKHYCKSISSRGRYNRDLEQDEAFIPVGESLKDLIDQSQSSGSGSGLPLLVQRTIAKQIQMVRQVGKGRYGEVWMGKWRGEKVAVKVFFTTEEASWFRETEIYQTVLMRHENILGFIAADIKGTGSWTQLYLITDYHENGSLYDFLKCATLDTRALLKLAYSAACGLCHLHTEIYGTQGKPAIAHRDLKSKNILIKKNGSCCIADLGLAVKFNSDTNEVDIPLNTRVGTKRYMAPEVLDESLNKNHFQPYIMADIYSFGLIIWEMARRCITGGIVEEYQLPYYNMVPSDPSYEDMREVVCVKRLRPIVSNRWNSDECLRAVLKLMSECWAHNPASRLTALRIKKTLAKMVESQDVKI

binding result [2]: binds
B3: m-BRK-3/BRK-2 complex (receptor)
chain 1: T1 chain
chain 2: RKEDSEGTAPAPPQKKLSCQCHHHCPEDSVNSTCSTDGYCFTIIEEDDSGGHLVTKGCLGLEGSDFQCRDTPIPHQRRSIECCTGQDYCNKHLHPTLPPLKNRDFAEGNIHHKALLISVTVCSILLVLIIIFCYFRYKRQEARPRYSIGLEQDETYIPPGESLKDLIEQSQSSGSGSGLPLLVQRTIAKQIQMVKQIGKGRYGEVWMGKWRGEKVAVKVFFTTEEASWFRETEIYQTVLMRHENILGFIAADIKGTGSWTQLYLITDYHENGSLYDYLKSTTLDTKGMLKLAYSSVSGLCHLHTGIFSTQGKPAIAHRDLKSKNILVKKNGTCCIADLGLAVKFISDTNEVDIPPNTRVGTKRYMPPEVLDESLNRNHFQSYIMADMYSFGLILWEIARRCVSGGIVEEYQLPYHDLVPSDPSYEDMREIVCIKRLRPSFPNRWSSDECLRQMGKLMMECWAHNPASRLTALRVKKTLAKMSESQDIKL
